{"source": "paper PMC9198058", "key": {"[1]": {"biological_target": "Nα-fluoresceinated hirugen ([F]-hirugen)", "assay": "other fluorescence titration"}, "[2]": {"biological_target": "Catalytically inactive recombinant S195A thrombin mutant (UniProt P00734)", "assay": "other fluorescence titration"}}, "data": [{"substance": "Catalytically inactive recombinant S195A thrombin mutant (from UniProt P00734 44-622) (enzyme)", "values": [{"measurement": "Kd", "setting": "[1]", "value": 30, "unit": "nM"}]}, {"substance": "Hirugen (54…*LQ65) (peptide)", "values": [{"measurement": "increase of [F]-hirugen fluorescence on displacement", "setting": "[2]", "value": 65, "unit": "%"}]}]}
